Ends that are not written are not given here.

Assay [1] concerns the target CHD5 tandem PHD1-2 as used in the ALPHA (UniProt Q8TDI0 338-468). In words: AlphaScreen or HTRF. (Alpha assays give light when donor and acceptor beads are brought close together.)
The target in assay [2] is CHD5 PHD1 finger (338-393), GST tag cleaved (UniProt Q8TDI0 338-393). Description: SPR. In general terms: SPR reads the build-up and loss of mass on a sensor chip optically.
Assay [3] concerns the target CHD5 tandem PHD1-2 (338-468), GST tag cleaved (UniProt Q8TDI0 338-468). In words: SPR.
Assay [4] has as its target CHD5 PHD2 finger (413-468), GST tag cleaved (UniProt Q8TDI0 413-468). In words: SPR.

Chain of CHD5 PHD2 finger (413-468), GST tag cleaved (Q8TDI0 413-468): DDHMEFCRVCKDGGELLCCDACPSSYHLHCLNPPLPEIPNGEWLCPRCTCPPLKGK
Chain of CHD5 tandem PHD1-2 (338-468), GST tag cleaved (Q8TDI0 338-468): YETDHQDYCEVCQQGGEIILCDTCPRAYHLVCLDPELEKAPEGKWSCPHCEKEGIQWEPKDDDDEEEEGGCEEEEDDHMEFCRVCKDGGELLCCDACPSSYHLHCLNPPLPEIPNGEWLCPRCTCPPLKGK
Chain of CHD5 PHD1 finger (338-393), GST tag cleaved (Q8TDI0 338-393): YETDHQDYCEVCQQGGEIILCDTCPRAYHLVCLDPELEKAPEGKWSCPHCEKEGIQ
Chain of CHD5 tandem PHD1-2 as used in the ALPHA (Q8TDI0 338-468): as the sequence (Q8TDI0 338-468) above

B1: Histone H3 peptide (1-11) with C-terminal 6x-histidine (peptide, UniProt P68431 2-12, looked up)
peptide: ARTKQTARKST
As to B1, the binding result in assay [1] is “binds”.

B2: Histone H3 peptide (1-11) with C-terminal biotin (peptide, UniProt P68431 2-12, looked up)
peptide: ARTKQTARKST-biotin
Consider B2, for which, in assay [2], binding was characterised by a dissociation constant (Kd) of 98.8 µM; the koff – broadly, the rate constant with which the complex falls apart – worked out at 0.0103 ± 0.0001 s⁻¹; the kon (usually the rate constant with which the complex forms) stood at 104 ± 7 M⁻¹ s⁻¹. For the same molecule, in assay [3], the Kd (as a rule, the equilibrium constant for the complex coming apart) is 9.18 µM; the koff was determined as 0.00348 s⁻¹; the kon came out at 379 ± 7 M⁻¹ s⁻¹. In assay [4], this molecule showed a Kd of 34.6 µM, a koff of 0.0136 ± 0.0003 s⁻¹ and a kon of 393 ± 13 M⁻¹ s⁻¹.

Source of the values: article PMC3518043 (Biochemistry, 2012).
